The values below come from PMC2830148 (Biochemistry, 2009).

The data set deals with the molecule itself. Briefly: SEC.

B1: human TRAF2 construct RZ1 (RING and first zinc finger domains, residues 1-133-His), wild type (domain or fragment, UniProt Q12933 1-133, looked up)
chain: MAAASVTPPGSLELLQPGFSKTLLGTKLEAKYLCSACRNVLRRPFQAQCGHRYCSFCLASILSSGPQNCAACVHEGIYEEGISILESSSAFPDNAARREVESLPAVCPSDGCTWKGTLKEYESCHEGRCPLML
Take B1: the “stoichiometry N” value was 2.

B2: TRAF2 RZ1 Q46A mutant (domain or fragment, human, UniProt Q12933 1-133, looked up)
chain: MAAASVTPPGSLELLQPGFSKTLLGTKLEAKYLCSACRNVLRRPFAAQCGHRYCSFCLASILSSGPQNCAACVHEGIYEEGISILESSSAFPDNAARREVESLPAVCPSDGCTWKGTLKEYESCHEGRCPLML
Consider B2, for which the binding result is “binds”.

B3: TRAF2 RZ1 N94A mutant (domain or fragment, human, UniProt Q12933 1-133, looked up)
chain: MAAASVTPPGSLELLQPGFSKTLLGTKLEAKYLCSACRNVLRRPFQAQCGHRYCSFCLASILSSGPQNCAACVHEGIYEEGISILESSSAFPDAAARREVESLPAVCPSDGCTWKGTLKEYESCHEGRCPLML
In the case of B3, the binding result is “binds”.
